The results in this text go back to the DeepSol protein solubility set.

The nature of the data set: soluble on expression in E. coli; label from the status in PepcDB or PDB records.
“MGSDKIHHHHHHMKRDFLGRTLAVIEDLSVEEQMFLYEKTRELKQRWYSGEDVSDFRIKKRNVGIYIVFVEPSTRTKESFINAAKFHSGPNVKVNVFDSEHSSFNKQESYTDTFSMLTGYSDYSIFVVRTRLEGVCRLLERRISEFASRNGIEVPSFINAGDGKHEHPTQELLDEYTFLEQNGFDNSFIHVALVGDLLHGRTVHSKVNGLKIFKNVKVDLVAPEELMMPEHYVEKMKKNGFEVRIFSSIREYLDQKDVAKIWYFTRLQLERMGEDILEKVHVLREAVTFKKEYLDALPEGVKFYHPLPRHKVYPTIPNFLDTLPLNGWETQARNGYWVRIVLLSMFGGALEAPFDTSKKEEKPEEDFIIPAPITHGSKGVQKEGKRGIKPIENGTVIDHIAKGKTPEEIYSTILKIRKILRLYDVDSADGIFRSSDGSFKGYISLPDRYLSKKEIKKLSAISPNTTVNIIKNSTVVEKYRIKLPPTIYGFEELRCKNENCITNPAHGENASPSFVRNEKGQFICEYCETPHSFEEIWSI”: the “soluble on expression in E. coli” value was “not soluble”.

Take “MSPVVSEASPERWDDETDVLVIGSGAGGLSAALFAAQAGLRVLICEKLAYVGGTTATSGGGIWVPGTKAGLAAGDTLEAARTYLKALLGDFYQEEVIDTYLATGGKVIDFLNENTEVKFDLSSWPDYRSSLPGGATRGRSLFPQPFDGKKLGRNFSLLHPPLHRLMVLGGLMLGPEEVHDFLRPFSSPRALMRVLRKLLRYGMDRIRYARGTDLRSGNALAARLLYSVDKLGCRILTQADLESLAIDHDRVIGATVVVGGVPKRIRASKAVLLATGGFAHNQEMLRRYGPATPHRFSLCNPACTGAGIQAALDAGASVDRELSSVGFWTPASASREKNGADTPVIYSYLDRGRPGVIAVNEQGERFVNEANSYHDIVTAIFANGGADGKPFYFITDREFVRRHGLGLIRPWPWNRSLRPWIRRGYITVASTLDKLGPKIGIDPGALAAAVQRHNQSARTGQDPDFHKGASAYNRMFGHNMIWPNPNLAPIETPPFVALRIHPATIGTAMGLKTSASGQALNAAGQPISGLYACGNDQASPFRGFYPGGGSTLGPAIVGAYLAVQSLSKQLEHHHHHH”: the “soluble on expression in E. coli” value was “not soluble”.

In the case of “MGSDKIHHHHHHMPKLIIDADDFGLSKAINHGIIESYKTGITTSTLLMPNLETAEHAIALAKNHPDLFIGQHTNFLLGKPCANPAEIPSLVDENGEFHRSKYYRANPELKFQYEDVRTETIAQMERFKALTGHYPEHIDCHSIGDETVDQAFFDIAREFGIHTTLKYSGDKKWSDQEGYLPITKLLESGALPYTNGGVSVENFLNDDFGLLKLAPNEIAEMHFDVGFLDQFVLDNSSYTLMRCRELATICDVRVRDWLLENGFELITFGDLQR”, the “soluble on expression in E. coli” value is “not soluble”.

“MGSDKIHHHHHHMKPIDLDKLDLLTLSILVSLYENKSATHVSRILDVPASKISRCLHTARLIFGDELFIRRKYGLVPNDYAGKIYPIAKEIVECAKHFNRLNSAEQSHNRYFELVIPGMIAYAYPRALMKAIKEHNKNIHINVSSWSSHSLESVTSDPHCIVMCCCKGPEEILCFDQKLQVEVLATMNRQYLLSCRKHPILKQDISLETIAKYPYINTFIGTQAPILNPFQEYCQAKDLSLNTEMTITSVSSLFDYLSDCQSLAITPYKAVYDMLDDDSGLHACQLSEYECNRLFEVVEPLKLVLVTHPSADNEDTAWLKQQIRELTHELI”: the “soluble on expression in E. coli” value is “not soluble”.

With “MSLREEIKVAVLRMEGTNCEDETVKAFRSLGVEAEAVHIKQFYSDMIRFEEQRSVFDYQCLVFPGGFSAGDYIRAGAIFSARVKSVLRKDIEEFIKMGYPILGICNGFQVLVELGALPGFDEDKPLAEKPEMALAMNDSSRFECRPTLLKKESEKCIFVKNLKKDVVMFPVAHAEGKVVFPSGKEDEYLERLTSNDQIVFRYVDEKGDYAGYPWNPNGSFYNIAGICNATHTVFGLMPHPERAFFGYQVGRREGYGDGYCIFRSVVDYLEEGHHHHHH”, the “soluble on expression in E. coli” value was “not soluble”.

With “GPGSMSMNVYKRQEKLRLYRALLKGANRFPLRSRREIVTEEVRGAFRHPLNDSLTTKEVDYKLLLGWERAAAIQTYAENMYWFHSRDEVSREMMHHSLERDRQRIREMERCNAVGNAEIKTPEVTEFKSSMYHVHPDYHGKIGQMPLTHSRDIWRARGQYGSDVGGPRQKFYVRRFKALFPQGW”, the “soluble on expression in E. coli” value is listed as “not soluble”.
